Measured values taken from publication PMC7898697.

Target: triazole-linked ^triazole42Ub^me-ADPr (5), biotinylated (UniProt P0CG48)
Assay: pull-down

Substance: mCherry-DupA-WT (from UniProt Q5ZTK7 1-301) (enzyme)
- fold enrichment against biotinylated wild-type Ub or beads: > 10 fold
